The source of these data is the nanobody polyreactivity screen of Harvey et al. (2022).

This data set in a line: yeast display, Sf9 membrane polyspecificity reagent, FACS + sequencing; frameworks hold sequencing errors. The gist of the method: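 A synthetic nanobody library was expressed on Saccharomyces cerevisiae BJ5465 by galactose induction for 36–48 hours. The library was stained for 1 hour at 4 °C with 10% biotinylated, detergent-solubilized Sf9 membrane reagent and enriched with streptavidin microbeads before FACS. Low and high (top ~1%) gates were set on anti-HA fluorescence for expression and streptavidin fluorescence for reagent binding, and each polyreactivity label reflects the gate of origin.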
With “QVQLVESGGGLVQAGGSLRLSCAASGSTFRYYTMGWYRQAAGQERELVAAITSGGGSTYYADSVKGRFTISRDNAKNTVYLQMNSLKPEDTAVYYCAARTRGTADNYWGQGTQGTVSS”, the “polyreactivity (PSR sort gate)” value is reported as “high polyreactivity”.

As to “QVQLVESGGGLVQAGGSLRLSCAASGSTFRYYTMGWYRQAPGKERELVAAISGSGGITYYADSVKGRFTMSRDNAKNNVYLQMNSLKPEDTAVYYCNAGVFYRDDYWGQGTQVTVSS”, the “polyreactivity (PSR sort gate)” value is reported as “high polyreactivity”.

Consider “QVQLVESGGGLVQAGGSLRLSCAASGSTFRYYVMGWYRQAPGKERELVAAISAGGGRTYYADSVKGRFTISRDNSKNTVYLQMNSLKPEDTAVYYCAAKSVTPYWQEYEYDYWGQGTQVTVSS”, for which the “polyreactivity (PSR sort gate)” value is “high polyreactivity”.

In the case of “QVQLVESGGGLVQAGGSLRLSCAASGSTFSANDMGWYRQAPGKEREFDAAITTSDDSTYYADSVKGRFTISRDNAKNTVYLQMNSVKPEDTAVYYCNAYSGYSFFGLGFFYKYDYWGQGTQVTVSS”, the “polyreactivity (PSR sort gate)” value is “low polyreactivity”.

As to “QVQLVESGGGLVQAGGSLRLSCAASGSTFSAYDMGWYRQAPGKERELVAAIDTGGTTYYADSVKGRFTISRDTAKNTVYVQMNSLKPEDTAVYYCIATIWYRDYGYWGQGTQVTVSS”, the “polyreactivity (PSR sort gate)” value is “low polyreactivity”.

As to “QVQLVESGGGLVQAGGSLRLSCAASGSTFSDNARGWYRQAPGKERELVAAIKETGGSTYYADSVKGRCTISRDNAKNTVYLQMNSLKPEDTAVYYCNADIDPYGATYAIEYDYWGQGTQVTVSS”, the “polyreactivity (PSR sort gate)” value was “low polyreactivity”.

“QVQLVESGGGLVQAGGSLRLSCAASGSTFSDYAMGWYRQAPGKERELVADISSDGSTYYADSVKGRFTISRDNAKNTVYLQMNSLKPEDTAVYYCNAGYPDYDWTWWHISYDYWGQGTQVTVSS”: the “polyreactivity (PSR sort gate)” value is reported as “low polyreactivity”.

For “QVQLVESGGGLVQAGGSLRLSCAASGSTFSENAMGWYRQAPGKERELVADITNGGSTNYADSVKGRFTISRDNAKNTVYLQMNSLKPEDTAVYYCATDSYPGLNPDFDYWGQGTQVTVSS”, the “polyreactivity (PSR sort gate)” value was “low polyreactivity”.

As for “QVQLVESGGGLVQAGGSLRLSCAASGSTFSEYVMGWYRQAPGKERELVAVITTGTSTNYADSVKGRFTISRDNAKNTVYLQMNSLKPEDTAVYYCNAEYLYGVRYHDYWNDFDYWGQGTQVTVSS”, the “polyreactivity (PSR sort gate)” value is on record as “low polyreactivity”.

For “QVQLVESGGGLVQAGGSLRLSCAASGSTFSFNDRGWYRQAPGKERELVADISCSGDTTYADSVKGRFTISRDNAKNTVYLQMKSLKPEATAVYYCAARQYFRNYVYWGQGTQVTVSS”, the “polyreactivity (PSR sort gate)” value is on record as “high polyreactivity”.

Take “QVQLVESGGGLVQAGGSLRLSCAASGSTFSFYAMGWYRQAPGKERELVAAISSRGGSTYYADSVKGRFTISRDNAKNTVYLQMNSLKPEDTAVYYCAVRRYPHFYHRGGFNFNGYDYWGQGTQVTVSS”: the “polyreactivity (PSR sort gate)” value is on record as “high polyreactivity”.

For “QVQLVESGGGLVQAGGSLRLSCAASGSTFSGNAMGWYRQAPGKERELVASITDGGNTYYADSVKGRFTISRDNAKNTVYLQMNSLKPEDTAVYYCAAEILWGGYDYWGQGTQVTVSS”, the “polyreactivity (PSR sort gate)” value is “low polyreactivity”.

In the case of “QVQLVESGGGLVQAGGSLRLSCAASGSTFSGNAMGWYRQAPGKEWELGATITITGGSTYYADSVKGRFTISRDNAKNTVYLQMNSLKPEDTAVYYCAKDYYAYSDYDYWGQGTQVTVSS”, the “polyreactivity (PSR sort gate)” value is on record as “low polyreactivity”.

Take “QVQLVESGGGLVQAGGSLRLSCAASGSTFSGYAKGWYRQAPGKERELVAAINWNGGRTYYADSVKGRFTISRDNAKNTVYLQMNSLKPEDTAVYYCNKQSPRGRSAVYKYDYWGQGTQVTVSS”: the “polyreactivity (PSR sort gate)” value is given as “high polyreactivity”.

Take “QVQLVESGGGLVQAGGSLRLSCAASGSTFSGYAMGWDRQAPGNERELVAAITSGGITNYADSVKGRFSLSRDNAKNTVYLQMNSLKPEDTAVYYCAKSVSGIGVGYDYWGQGTQVTVSS”: the “polyreactivity (PSR sort gate)” value was “low polyreactivity”.

With “QVQLVESGGGLVQAGGSLRLSCAASGSTFSGYMGWNRQAPGKERELVAAITSGGSTNYADSVKGRFTISRDNAENTVYLQMNSLKPEDTAVYYCAAQGRWLGWRGYDYWGLGTQVTVSS”, the “polyreactivity (PSR sort gate)” value is listed as “high polyreactivity”.

“QVQLVESGGGLVQAGGSLRLSCAASGSTFSHNAMGWSIQAPWKERELLASISSGANTYYADSVKGRFTISRDNAKNTVYLHMNSLKPEVTAVYYCAAGAHAYDHYSWFYFRMHYWGQGTQVTVSS”: the “polyreactivity (PSR sort gate)” value is reported as “low polyreactivity”.

For “QVQLVESGGGLVQAGGSLRLSCAASGSTFSHNAMGWYRQAPGKERELVAAIRWNGGSTHYADSVKVRFTISRDNAKNTVYLQMNSLKPEDTAVYYCAKENHYFTQGYGYWGQGTQVTVSS”, the “polyreactivity (PSR sort gate)” value is listed as “low polyreactivity”.

With “QVQLVESGGGLVQAGGSLRLSCAASGSTFSHYAMGWYRQAPGKERELVATITYSGGSTYYADSVKGRFTISRDNAKNTVYLQMNSMKPEDTAVYYCAARPRFITYKRYYWGQGTQVTVSS”, the “polyreactivity (PSR sort gate)” value is on record as “high polyreactivity”.

With “QVQLVESGGGLVQAGGSLRLSCAASGSTFSIYAMGWYRPAPGKERELVAAITGTVGSTYYADSVKGRFTISRDNAKNTVYLQMNSLKPEDTAVYYCAARQVNYDYDYWGQGTQVTVSS”, the “polyreactivity (PSR sort gate)” value is “low polyreactivity”.

Consider “QVQLVESGGGLVQAGGSLRLSCAASGSTFSIYAMGWYRQAPGKEREFVAAISSSSGSTYYADSVKGRFTISRDNAMNTVYLQMNSLKPEDTAVYYCIRRYRRGGVKGVYYWGQGTQVTVSS”, for which the “polyreactivity (PSR sort gate)” value is recorded as “high polyreactivity”.

Turning to “QVQLVESGGGLVQAGGSLRLSCAASGSTFSIYAMGWYRQAPGKERELVAAISSDSTYYADSVKGRFTISRDNAKNSVYLQMNSLKPEDTAVYYCAADPYFPKYYYWGQGTQVTVSS”, the “polyreactivity (PSR sort gate)” value is “low polyreactivity”.

In the case of “QVQLVESGGGLVQAGGSLRLSCAASGSTFSIYAMGWYRQAPGKERELVAAISSDSTYYADSVKGRFTISRDNAKNTVYLQMNSLKPEDTAVYYCAADPYFPKYYYWGQGTQVTVSS”, the “polyreactivity (PSR sort gate)” value is recorded as “low polyreactivity”.

For the sequence “QVQLVESGGGLVQAGGSLRLSCAASGSTFSKNAMAWYRQAPGKERELVASISSSGGSTYYADSVKGRFTISRDTAKNTVYLQLNSLKPEDTAVSYCATRRGRGYYYWGQGTQVTVSS”, the “polyreactivity (PSR sort gate)” value was “high polyreactivity”.

Consider “QVQLVESGGGLVQAGGSLRLSCAASGSTFSKNAMGWYRQAPGKERELVAAINWSTGSTHYADSVKGRFTISRDNAKNTVYLQMNRLKPEDTAVYYCAAEGPKQYDYWGQGTQVTVSS”, for which the “polyreactivity (PSR sort gate)” value was “low polyreactivity”.

For “QVQLVESGGGLVQAGGSLRLSCAASGSTFSKYAMGCYRQAPGKERELVAAISSGGRTNYADSVKGRFTISRDNAKNTVYLQMNSLKPEDTAVYFCAALLGYWAYYYWGQGSQVTVSS”, the “polyreactivity (PSR sort gate)” value is “low polyreactivity”.

For the sequence “QVQLVESGGGLVQAGGSLRLSCAASGSTFSKYAMGWYRQAPGKERELVAGISRRVGSTYYADSVKGRFTISRDNAKNTVYFQMNSLKPEDTAVYYCNKVRGYPWQVVGYDYWGQGTQVTVSS”, the “polyreactivity (PSR sort gate)” value is recorded as “high polyreactivity”.

Consider “QVQLVESGGGLVQAGGSLRLSCAASGSTFSKYAMGWYRQAPVKERELVAGIRGRGGSAYYADSVKGRFTISRDNAKNTVYLQMNSLKPEDTAVYYCAKEARLWGQGTQVTVSS”, for which the “polyreactivity (PSR sort gate)” value is “low polyreactivity”.

For the sequence “QVQLVESGGGLVQAGGSLRLSCAASGSTFSKYVMGWYRQATGKERELVAAISGGDRTYYADSVKGRFTISRDNAKNTVYLQMNSLKPEDTAVYYCAAEVLKTRWSYDYWGQGTQVTVSS”, the “polyreactivity (PSR sort gate)” value is given as “high polyreactivity”.

As for “QVQLVESGGGLVQAGGSLRLSCAASGSTFSLYAMGWYRQAPGKERELVASSRWSGGRTYDADSVKGRFTISRDNAKNTVYLQMNSLKPEDTAVYYCAAAWRYGYGYLGQGTQVTVSS”, the “polyreactivity (PSR sort gate)” value was “high polyreactivity”.

As to “QVQLVESGGGLVQAGGSLRLSCAASGSTFSNNAMGWYRQAPGKERELVASTNYADSVKGRFTISRDNAKNTVYLQMNSLKPEDTAVYYCAAGAYPSWGHDYWGQGTQVTVSS”, the “polyreactivity (PSR sort gate)” value is on record as “low polyreactivity”.

Turning to “QVQLVESGGGLVQAGGSLRLSCAASGSTFSPYALGWYRQATGKERELVAAISASGVGTYYADSVKGRFTISRDYAKNPVYLQMNRLIPEDTAVYYCCRDYGWDISKGRYGYWGQGTQVTVSS”, the “polyreactivity (PSR sort gate)” value is “low polyreactivity”.

For the sequence “QVQLVESGGGLVQAGGSLRLSCAASGSTFSPYAMGCYRQAPGKERELVAAINYSSGSTYYADSVKGRFTISRDNAMNTVYLQLNSLKPEDTAVYYCATGWYAGFTYDYWGQGTQVTVSS”, the “polyreactivity (PSR sort gate)” value was “low polyreactivity”.

As to “QVQLVESGGGLVQAGGSLRLSCAASGSTFSPYAMGWYRQAPGKERELVAAIRRGGSTNYADSVKGRFTISRDNAKNTVYLQMNSLKPEDTAVYYCAATKRRFVKFDYWGQGTQVTVSS”, the “polyreactivity (PSR sort gate)” value is given as “low polyreactivity”.

For the sequence “QVQLVESGGGLVQAGGSLRLSCAASGSTFSPYAMGWYRQAPGKERELVAGITSSGGDTYYADSVKGRFTISRDNAKNTVYLQMNSLKPEDTAVYYCAAGLQGYPRKFNYWGQGTQVTVSS”, the “polyreactivity (PSR sort gate)” value is listed as “low polyreactivity”.

“QVQLVESGGGLVQAGGSLRLSCAASGSTFSQNAMGWYRQAPGKERELVAVISSSGGRTNYADSVKGRFTISRDNAKNTVYLQMNSLKPEDSAVYYCAKRLRVLYYYWGQGTQVTVSS”: the “polyreactivity (PSR sort gate)” value was “high polyreactivity”.

For the sequence “QVQLVESGGGLVQAGGSLRLSCAASGSTFSQNAMGWYRQAPGKERELVAVISSSGGRTNYADSVKGRFTISRDNAKNTVYLQMNSLKPEDTAVYYCAKRLRVLYYYWGQGTQVTVSS”, the “polyreactivity (PSR sort gate)” value is on record as “high polyreactivity”.

As to “QVQLVESGGGLVQAGGSLRLSCAASGSTFSQYAMGWYRQAPGKERELVAAITGSTGSTYYADSVKGRFTISRDNAKNTVYLQMNSLKPEDTAVYYCAAVSSNARHVSRRRGYYWGQGTQVTVSS”, the “polyreactivity (PSR sort gate)” value is on record as “high polyreactivity”.

As for “QVQLVESGGGLVQAGGSLRLSCAASGSTFSQYAMGWYRQAPGKERELVAAITRGGRTYYADSVKGRFTISRDNAKNTVYLQMNSLKPEDTAVYYCNAVLGLLYGYDYWGQGTQVTVSS”, the “polyreactivity (PSR sort gate)” value is “high polyreactivity”.

In the case of “QVQLVESGGGLVQAGGSLRLSCAASGSTFSRDAMRWYRQPPGKERELVAAISSVGDTYYADSVKGRFTISRDNAKNTVYLQMNSLKPEDTAVYYCGATFVVKGTRFGYWGQGTQVTVSS”, the “polyreactivity (PSR sort gate)” value was “high polyreactivity”.

Regarding “QVQLVESGGGLVQAGGSLRLSCAASGSTFSRNAMGWSRQAPGKERELVAAISRRGGTTNYADSVKGRFTISRDNAKNTVYLQMNSLKPEDTAVYYCNAQPGDYWGQGTQVTVSS”, the “polyreactivity (PSR sort gate)” value is given as “high polyreactivity”.
